Results on two substances are retold here after patent publication US6372467B1, “P54s6k and p85s6k genes, proteins, primers, probes, and detection methods” (President and Fellows of Harvard College, priority 1998, dated 2002).

One data set has as its system p54^S6K. Kind of data set: In vitro kinase assay (GST-S6 substrate) of 167 anti-p54^S6K antiserum immunoprecipitates from mitogen-treated 293 cells. It is filed as cell-based, human. As to conditions: EGF 250 ng/ml or insulin 200 nM for 20 minutes. The procedure:
(§1) 293 cells were treated with serum (10%), EGF (250 ng/ml), or insulin (200 nM) for 20 minutes, lysed, and the lysates were immunoprecipitated with 167 anti-p54^S6K antiserum or with N2 anti-p70^S6k antiserum. Phosphorimager™ counts from an in vitro kinase assay of the immunoprecipitates using GST-S6 as the substrate are shown.
(§2) Antibodies were made using standard techniques, such as those described in Harlow and Lane (Antibodies: A Laboratory Manual, Cold Spring Harbor Press, New York. 1988). The cells were starved and then stimulated with serum, EGF, or insulin, or left unstimulated. Rapamycin or wortmannin were also incubated with the cells prior to serum stimulation when indicated.
(§3) Lysates from 293 cells transfected with HA-p54^S6K or HA-p54^S6K KR were immunoblotted with anti-HA Ab. (FIG. 3B bottom left panel). […] This is of interest since a majority of the p70^S6k phosphorylation sites are conserved in p54^S6K (FIG. 1B). […] Finally, the activation kinetics of p54^S6K and p70^S6k were compared.

The subject of a further data set is p70^S6k. The data set can be described thus: In vitro kinase assay (GST-S6 substrate) of N2 anti-p70^S6k antiserum immunoprecipitates from mitogen-treated 293 cells. It is filed as cell-based, human. As to conditions: EGF 250 ng/ml or insulin 200 nM for 20 minutes. How it is done:
as §1, §2, §3

As to EGF, the “p54^S6K kinase activity (stimulation by mitogen)” value in the data set with p54^S6K is listed as “to a small degree”. The “p70^S6k kinase activity (activation by mitogen)” value with p70^S6k is listed as “only mildly activated”.
For insulin, in that order: “stimulated” and “strongly activated”.
